These results are taken from publication doi:10.1101/2024.12.17.628889.

The assay deals with wild-type PERK BiFC construct (pEZY BiFC pre-NV(CV)-PERK) (human) (UniProt Q9NZJ5). Briefly: split reporter.
Chain of UniProt Q9NZJ5 (Q9NZJ5 30-1116): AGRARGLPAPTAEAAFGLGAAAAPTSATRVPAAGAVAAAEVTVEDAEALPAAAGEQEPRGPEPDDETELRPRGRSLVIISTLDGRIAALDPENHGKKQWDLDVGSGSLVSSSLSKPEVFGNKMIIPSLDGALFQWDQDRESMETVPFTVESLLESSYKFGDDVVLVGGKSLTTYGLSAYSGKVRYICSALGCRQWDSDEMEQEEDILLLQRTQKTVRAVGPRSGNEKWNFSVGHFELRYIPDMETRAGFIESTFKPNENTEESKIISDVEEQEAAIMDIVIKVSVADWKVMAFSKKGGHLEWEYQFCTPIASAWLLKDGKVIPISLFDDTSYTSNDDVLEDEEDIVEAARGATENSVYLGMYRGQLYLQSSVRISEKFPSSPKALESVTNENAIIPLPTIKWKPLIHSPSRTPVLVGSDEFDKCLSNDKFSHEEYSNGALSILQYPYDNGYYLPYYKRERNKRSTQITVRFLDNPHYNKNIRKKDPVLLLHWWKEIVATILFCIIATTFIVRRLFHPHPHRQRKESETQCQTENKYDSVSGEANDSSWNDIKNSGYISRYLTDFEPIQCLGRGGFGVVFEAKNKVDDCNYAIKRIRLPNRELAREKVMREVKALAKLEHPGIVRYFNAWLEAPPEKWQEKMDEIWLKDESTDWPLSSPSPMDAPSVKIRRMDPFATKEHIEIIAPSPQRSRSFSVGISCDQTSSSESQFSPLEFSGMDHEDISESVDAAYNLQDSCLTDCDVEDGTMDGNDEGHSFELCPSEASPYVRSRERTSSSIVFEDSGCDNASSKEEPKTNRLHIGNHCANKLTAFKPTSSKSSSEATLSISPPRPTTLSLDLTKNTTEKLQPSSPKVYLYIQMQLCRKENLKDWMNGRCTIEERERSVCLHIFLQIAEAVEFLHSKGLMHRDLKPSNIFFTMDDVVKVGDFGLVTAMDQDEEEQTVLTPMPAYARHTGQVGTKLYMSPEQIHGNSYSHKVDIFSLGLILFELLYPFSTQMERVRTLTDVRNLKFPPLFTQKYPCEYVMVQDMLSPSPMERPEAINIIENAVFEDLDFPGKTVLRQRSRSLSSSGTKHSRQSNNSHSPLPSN

For “CDNF BiFC construct (pEZY BiFC pre-CDNF-NV(CV)) (from UniProt Q49AH0 25-187) (natural protein)”, the BiFC fluorescence intensity relative to the CDNF-IRE1α interaction worked out at 7 times higher.

The substance “CDNF K122A BiFC construct (natural protein)” registered a BiFC fluorescent signal relative to wt CDNF and the other mutants of 5 times lower.
